Reference: patent US5885797

Biological target: E12

Binder	Relative CAT Activity (%), p4R-TK-CAT, NIH3T3 [%]
I-mfa (protein) MSQVSGQCPSRCDAPHGVPSAALDPAQTMSLLPGLEVARSTHPVEASSEEGFPEEAAPSMPHDSGLRAQQALNSIDLDVPTEAVTCQPQGNPQGCTPLLPNGSSHDHLSEPGSAGHAGNGALGGSKAHRKLQTHPSLGSQAGRKSRGSARSASQVPLQAQEDCCVHCILSCLFCEFLTLCNILLDCATCGSCSSEDSCLCCCCCGSGECADCDLPCDLDCGIVDACCESADCLEICMECCGLCFSS	76.3
I-mfc (protein) MSQVSGQCPSRCDAPHGVPSAALDPAQTMSLLPGLEVARSTHPVEASSEEGFPEEAAPSMPHDSGLRAQQALNSIDLDVPTEAVTCQPQGNPQGCTPLLPNGSSHDHLSEPGSAGHAGNGALGGSKAHRKLQTHPPQPPNRSAFRRVAWSPPRVTRNTASRAW	93.8
I-mfb (protein) MSQVSGQCPSRCDAPHGVPSAALDPAQTMSLLPGLEVARSTHPVEASSEEGFPEEAAPSMPHDSGLRAQQALNSIDLDVPTEAVTCQPQGNPQGCTPLLPNGSSHDHLSEPGSAGHAGNGALGGSKAHRKLQTHPSLGSQAGRKSRGSARSASQVPLQAQEGKAPAVRIHRQTASPTCCLRNAQLSGTALRSLRLESQGHRELNNKTLSQSNNKKPGVAAHAAIIPALTRPKQNCHDPSLLPGTHGVGKEF	98.7
